The supplement of paper PMC7877785
± gives the uncertainty stated by the source.

Experiment: self-splicing fitness, log relative to wild type (ln ratio); higher = more splicing; Tetrahymena group I intron in knt gene, E. coli kanamycin selection, DiMSum; sequences stand for … in CUCUCU…GGAGGGAAAAGUUAUCAGGCAUGCACCUGGUAGCUAGUCUUUAAACCAAUAGAUUGCAUCGGUUUAAAAGGCAAGACCGUCAAAUUGCGGGAAAGGGGUCAACAGCCGUUCAGUACCAAGUCUCAGGGGAAACUUUGAGAUGGCCUUGCAAAGGGUAUGGUAAUAAGCUGACGGACAUGGUCCUAACCACGCAGCCAAGUCCUAAGUCAACAGAUCUUCUGUUGAUAUGGAUGCAGUUCACAGACUAAAUGUCGGUCGGGGAAGAUGUAUUCUUCUCAUAAGAUAUAGUCGGACCUCUCCUUAAUGGGAGCUAGCGGAUGAAGUGAUGCAACACUGGAGCCGCUGGGAACUAAUUUGUAUGCGAAAGUAUAUUGAUUAGUUUUGGAGUACUCGUGGUCG
Procedure, shortened: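 Six replicate transformations of E. coli BL21(DE3) with a pET-22b(+) library were grown overnight at 37°C or 30°C. The library randomised all eight P1ex-region intron nucleotides, the intron lying in the knt kanamycin-resistance gene, and plates were LB agar with or without 25 μg/mL kanamycin plus 100 μg/mL carbenicillin, 50 μM IPTG and 0.2% rhamnose. Pooled colonies were amplicon-sequenced on an Illumina HiSeq 2500, and fitness is the DiMSum error-weighted combination of wild-type-normalised replicate fold changes, kanamycin versus none.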

Sequence	self-splicing fitness (ln) (30 °C)	self-splicing fitness (ln) (37 °C)
GCAAAGCAAUAUUACGAUUA	-0.0977 ± 0.11	-1.13 ± 0.13
CGCCAGCAAUAUUACGACAA	-2.46 ± 0.31	-0.75 ± 0.15
AGUUAGCAAUAUUACGUCCG	-1.32 ± 0.15	-0.0933 ± 0.19
AACGAGCAAUAUUACGUUGU	-3.8 ± 0.098	-3.3 ± 0.13
CUGGAGCAAUAUUACGACUU	-3.44 ± 0.38	-2.38 ± 0.39
AUUUAGCAAUAUUACGCACA	-0.136 ± 0.093	-0.202 ± 0.095
GGUUAGCAAUAUUACGGCGA	-0.237 ± 0.09	0.106 ± 0.086
UAUAAGCAAUAUUACGACUG	0.143 ± 0.076	0.22 ± 0.098
GACCAGCAAUAUUACGGCCU	-2.51 ± 0.13	-0.969 ± 0.11
UGCAAGCAAUAUUACGGACC	-0.803 ± 0.088	-1.12 ± 0.16
GAUGAGCAAUAUUACGUUUA	-3.13 ± 0.29	-2.75 ± 0.23
GAGGAGCAAUAUUACGUUAG	-4 ± 0.27	-1.93 ± 0.27
ACCUAGCAAUAUUACGCCCU	-0.142 ± 0.12	-0.462 ± 0.14
UUAGAGCAAUAUUACGUCUC	-3.56 ± 0.25	-2.82 ± 0.34
GCCCAGCAAUAUUACGUGAU	-0.455 ± 0.046	-0.00599 ± 0.065
CCGCAGCAAUAUUACGAUCG	0.289 ± 0.083	0.186 ± 0.11
CUCUAGCAAUAUUACGGAAG	-2.95 ± 0.13	-1.34 ± 0.12
AUCUAGCAAUAUUACGAAUU	-2.94 ± 0.18	-1.74 ± 0.19
CCCAAGCAAUAUUACGCGUG	-3.31 ± 0.12	-3.1 ± 0.18

Sequence	self-splicing fitness (ln) (30 °C)	self-splicing fitness (ln) (37 °C)
AUUCAGCAAUAUUACGACGA	-0.537 ± 0.1	-0.53 ± 0.12
GAGUAGCAAUAUUACGCAAC	-3.77 ± 0.37	-2.66 ± 0.36
AGACAGCAAUAUUACGACUU	-0.384 ± 0.074	0.347 ± 0.099
CAAAAGCAAUAUUACGCUGA	-3.25 ± 0.2	-1.81 ± 0.15
CACGAGCAAUAUUACGUGUG	-3.48 ± 0.13	-3.21 ± 0.17
UUCUAGCAAUAUUACGAGAG	-2.3 ± 0.22	-2.4 ± 0.29
CGUGAGCAAUAUUACGGGUA		-2.39 ± 0.38
AGAGAGCAAUAUUACGUGAC		-1.43 ± 0.42
ACACAGCAAUAUUACGCCUC	-2.92 ± 0.18	-1.73 ± 0.2
AGGGAGCAAUAUUACGAGGU	-2.64 ± 0.17	-3.55 ± 0.31
AUUCAGCAAUAUUACGCCGU	-0.349 ± 0.15	0.177 ± 0.14
GUGUAGCAAUAUUACGACUU	-0.0355 ± 0.15	-0.00223 ± 0.19
AAGAAGCAAUAUUACGCUAC	-2.18 ± 0.24	-1.93 ± 0.44
AUGCAGCAAUAUUACGGAGA	-4.25 ± 0.44	-4.21 ± 0.34
UGAAAGCAAUAUUACGAAGG	-2.92 ± 0.21	-1.48 ± 0.25
CUUCAGCAAUAUUACGAAAU	-2.2 ± 0.31	-2.4 ± 0.5
CAAUAGCAAUAUUACGCCAA	-2.96 ± 0.22	-2.76 ± 0.2
GACAAGCAAUAUUACGUCGU	-3.44 ± 0.14	-2.24 ± 0.11
